Test [1] concerns the target T1, recombinant protein mouse Dsg1-His (mouse, UniProt Q61495 50-564, limits assumed).
T1 construct: not shown: His tag
T1 sequence (looked up): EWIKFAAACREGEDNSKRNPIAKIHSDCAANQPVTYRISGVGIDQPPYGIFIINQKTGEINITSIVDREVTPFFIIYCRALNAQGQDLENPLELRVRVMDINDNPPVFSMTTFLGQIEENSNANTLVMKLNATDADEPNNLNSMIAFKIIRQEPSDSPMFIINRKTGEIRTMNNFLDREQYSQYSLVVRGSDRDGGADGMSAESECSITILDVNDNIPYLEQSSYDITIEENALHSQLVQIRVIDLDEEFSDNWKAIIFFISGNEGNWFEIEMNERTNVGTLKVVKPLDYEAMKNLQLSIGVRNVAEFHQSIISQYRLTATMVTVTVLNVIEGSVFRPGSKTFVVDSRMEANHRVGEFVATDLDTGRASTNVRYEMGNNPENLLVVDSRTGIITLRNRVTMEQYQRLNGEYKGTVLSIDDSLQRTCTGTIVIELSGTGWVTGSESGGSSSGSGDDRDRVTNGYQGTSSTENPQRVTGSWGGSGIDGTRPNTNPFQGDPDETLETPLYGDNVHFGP
The test can be described thus: ELISA on recombinant mouse Dsg1-His. An excerpt:
The baculovirus vectors, pEVmod-Dsg3-His and pEVmod-Dsg1-His, pEVmod-mouse Dsg3-His and pEVmod-mouse Dsg1 -His, that were constructed according to the method as described previously (J. Immunol. 159, 2010-2017, 1997) were used. These recombinant baculoviruses were infected to insect cells, High Five (Invitrogen Corporation), then the recombinant protein human Dsg3-His and Dsg1-His, recombinant protein mouse Dsg3-His and Dsg1-His were collected from the culture media, respectively. In addition, purification of these recombinant proteins was conducted using Ni-NTA column. These purified recombinant proteins were coated on ELISA (Enzyme Linked Immunosorbent Assay) plates, respectively, 50 μl each of the culture supernatant of the anti-Dsg3 monoclonal antibody-producing hybridoma was added to each well, and ELISA was practiced according to the method as previously described (J Clin Invest 105, 625-631, 2000). PV mouse model 1 serum with moderate degree of antibody titer was selected as a positive control, and 1 serum of normal mouse serum was selected as a negative control. Absorbance was determined at wavelength 450 nm (Bio-rad, Hercules, Calif. USA), and the index was shown by the following formula. Index={OD(specimen)−OD(negative control)}/{OD(positive control)−OD(negative control)}×100 A-2 (Living Cell Staining using Culture Mouse Keratinocyte PAM 212)

The target of test [2] is T2, inactivated Dsg3 protein having a pro-sequence (mouse, UniProt O35902 24-617, limits assumed).
T2 construct: the sentence on immunoblotting itself says only 'Dsg3'; also called protein with large molecular weight; not shown: His tag
T2 sequence (looked up): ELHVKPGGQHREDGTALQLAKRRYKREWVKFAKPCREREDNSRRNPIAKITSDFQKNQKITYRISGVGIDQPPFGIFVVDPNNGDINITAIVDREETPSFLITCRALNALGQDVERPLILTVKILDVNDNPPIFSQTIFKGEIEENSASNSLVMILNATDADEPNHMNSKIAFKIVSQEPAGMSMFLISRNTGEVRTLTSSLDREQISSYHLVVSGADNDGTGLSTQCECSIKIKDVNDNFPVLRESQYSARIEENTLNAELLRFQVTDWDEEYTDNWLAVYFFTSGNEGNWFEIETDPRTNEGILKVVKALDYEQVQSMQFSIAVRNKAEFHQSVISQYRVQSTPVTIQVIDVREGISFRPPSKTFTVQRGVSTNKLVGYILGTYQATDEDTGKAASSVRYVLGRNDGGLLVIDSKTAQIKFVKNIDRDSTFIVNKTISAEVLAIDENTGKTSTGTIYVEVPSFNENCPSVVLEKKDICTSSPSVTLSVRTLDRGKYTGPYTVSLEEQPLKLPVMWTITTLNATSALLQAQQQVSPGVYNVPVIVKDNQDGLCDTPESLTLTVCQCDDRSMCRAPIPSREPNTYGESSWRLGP
The test can be described thus: immunoprecipitation and immunoblotting of recombinant Dsg3 (FIG. 7b). How it is done: Then 10 μl of protein G (Protein G sepharose 4 fast flow: Amersham Pharmacia Biotech, Buckinghamshire, England) was added and reacted overnight at […]. Centrifugation was conducted after the reaction, and 50 μl of SDS was added to the precipitate and boiled for 2 minutes. Each sample was subjected to electrophoresis with a 7.5% uniform gel plate for electrophoresis (multigel 7.5: Daiichi Pure Chemicals, Tokyo, Japan), transcribed to PVDF membrane, then blocked. Further, 100-fold diluted anti-6X histidine antibody (R&D systems, Inc. Minn., USA) was reacted for 1 hour at room temperature, washed (3 times) in TBS (Tris buffered saline), then 1000-fold diluted alkaline phosphatase-goat anti-mouse IgG (Zymed, San Francisco, Calif., USA) was reacted for 1 hour at room temperature, washed (3 times) in TBS, then developed.
To characterize the epitopes of monoclonal antibodes such as AK23 and the like, it was first determined whether the binding to Dsg3 of the antibodies is calcium-dependent or not. Recombinant mouse Dsg3-His was treated with or without EDTA, and then subjected to immunoprecipitation with the AK antibodies. EDTA treatment abolished the reactivity of AK19 and AK23 antibodies, but not the reactivity of the other AK antibodies (Table 3, FIG. 7a). […]

B1: anti-Dsg3 monoclonal antibody AK23 (antibody, mouse IgG1, V domains shown)
VH: QVQLQQSGTELVKPGASVKLSCKSSGYTFTSYWINWVKQRPGQGLEWIGNINPSNGGINYNEKFKSKATLTVDKSSSTAYMQLKSLTSEDSAVYYCARGGYDGYPWGQGTTVTVS
VL: DIQMTQSPKFLLVSAGDRVTITCKASQSVSYDVAWYQQKPGQSPKLLISYASNRYTGVPDRFTGSGYGSDFTFTISTVQTEDLAVYFCQQDYSSPWTFGGGTKLELKR
notes: Mouse IgG1 kappa hybridoma antibody
As to B1, the binding result in test [1] and in test [2] was “no binding” throughout.

(Values after patent US20050025760A1 (KEIO UNIVERSITY, published 2005).)
